Measurements published in patent US20150183864A1 (KOREA ADVANCED INSTITUTE OF SCIENCE AND TECHNOLOGY KAIST, published 2015).

How the values were obtained:
[1] = molecular target: VEGF-A165 (produced from CHO cell) (UniProt P15692); assay: SPR, BIAcore 3000, VEGF-A immobilized on CM5 chip
[2] = molecular target: T1, TNFR2-Fc (also known as Etarnercept, U.S. Pat. No. 5,447,851) (human, UniProt P20333 23-257); assay: ELISA, VEGF-A coated on the plate, Fc fusion protein 0.01-10 nM, detection with anti-human Fc-HRP, OD 415
T1 construct: range 23-257; The ELISAs and photograph assays name TNFR2-Fc; the SPR and MTT assays name ENBREL®; also called TNFR2-Fc (1-257); ENBREL®; not shown: Fc of human IgG
T1 sequence (looked up): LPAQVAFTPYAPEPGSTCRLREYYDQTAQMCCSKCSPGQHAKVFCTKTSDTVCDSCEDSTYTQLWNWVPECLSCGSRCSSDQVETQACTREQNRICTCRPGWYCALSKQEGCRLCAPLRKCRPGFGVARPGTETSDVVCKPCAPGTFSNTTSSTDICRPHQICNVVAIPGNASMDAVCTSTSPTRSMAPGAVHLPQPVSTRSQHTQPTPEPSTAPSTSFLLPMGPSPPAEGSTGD
Description: After washing the plate 3 times with each 400 μl of PBS, a blocking was performed with the blocking solution (1% BSA in 100 μl PBS) at 37° C. for 2 hour. […] After washing the plate 3 times with each 400 μl of PBS, 50 μl of 3,3′,5,5′-tetramethylbenzidine (TMB) solution (Sigma-Aldrich T0440) was added into the plate, and were incubated at room temperature for 10 min.

Chain of VEGF-Trap (Fc fusion) (chain): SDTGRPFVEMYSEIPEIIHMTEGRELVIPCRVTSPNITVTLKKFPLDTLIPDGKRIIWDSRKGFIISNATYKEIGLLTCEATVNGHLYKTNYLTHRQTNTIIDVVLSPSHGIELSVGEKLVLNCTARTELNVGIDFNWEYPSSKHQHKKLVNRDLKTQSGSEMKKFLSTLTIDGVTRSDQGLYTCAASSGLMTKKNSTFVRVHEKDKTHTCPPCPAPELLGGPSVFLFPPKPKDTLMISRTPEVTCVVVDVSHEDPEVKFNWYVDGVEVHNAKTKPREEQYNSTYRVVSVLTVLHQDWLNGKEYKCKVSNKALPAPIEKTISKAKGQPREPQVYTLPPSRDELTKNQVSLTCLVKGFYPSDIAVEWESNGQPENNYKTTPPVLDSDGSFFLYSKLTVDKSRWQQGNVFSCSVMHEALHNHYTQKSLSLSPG

Row | Molecule | Kd [1] [pM] | binding result [2]
1 | VEGF-Trap (Fc fusion) | 1.35 | –
2 | VEGF-A165 (produced from CHO cell) (ligand, UniProt P15692-4 27-191, looked up) APMAEGGGQNHHEVVKFMDVYQRSYCHPIETLVDIFQEYPDEIEYIFKPSCVPLMRCGGCCNDEGLECVPTEESNITMQIMRIKPHQGQHIGEMSFLQHNKCECRPKKDRARQENPCGPCSERRKHLFVQDPQTCKCSCKNTDSRCKARQLELNERTCRCDKPRR | – | no binding (tested: 10 nM)
